Assay results from the supplement of paper PMC12042874.
± gives the uncertainty stated by the source.

Test: amyloid nucleation score (Sup35N fusion, yeast selection) (log enrichment); library NNK1; higher = more nucleation; inactive = no reads after selection
How it was run: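 Peptides of 20 random codons, each fused to Sup35N, were expressed in psi-negative yeast. Cells were induced with 100 μM copper sulfate for 24 hours and grown 7 days at 30°C on medium lacking adenine and uracil, and plasmid inserts before and after selection were Illumina-sequenced. Nucleation scores are DiMSum log enrichments of output over input reads, centred on the mode score of non-aggregating sequences, and sequences under 100 input reads were excluded.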

| Substance | amyloid nucleation score |
| --- | --- |
| DTLDLQLRNVRLTRACMAQY | 0.329 ± 0.34 |
| DTPWWGSGALVFKLCACSAY | -0.341 ± 0.59 |
| DTRNPRITALRY | 0.431 ± 0.39 |
| DTRTSNNPALFRGFTALRVR | 0.412 ± 0.54 |
| DTVYLLGGCCLVVRLNLFIG | 3.77 ± 0.15 |
| DVGMLV | -0.107 ± 0.31 |
| DVIMEGFAMCVWSRVTALLE | 0.492 ± 0.85 |
| DVNNIHLRKLTDCHI | 1.61 ± 0.36 |
| DVTLMCYRQCLDMDMPIDLG | 0.733 ± 0.32 |
| DVVICRYSAVIRVFLTLKFK | -0.202 ± 0.49 |
| DVVLDYSRQTYKDPASRMYA | 1.1 ± 0.71 |
| DVVPSSGFVFMIRTDTLSHN | -0.265 ± 1.2 |
| DVVTSGILTASSRWYVRRGR | -0.729 ± 1.2 |
| DWFSGLNRPRCIKLAQGGTG | 0.441 ± 0.38 |
| DWRNAFLLCYANRNVQTCMS | -0.673 ± 0.3 |
| DYFRYRIFKKSYHKPAVICI | -0.415 ± 0.52 |
| DYGDYCAKWTQSYNALTVRF | 0.594 ± 0.58 |
| DYGIVGAEVKKCLIL | 0.433 ± 0.44 |
| DYSLKCLTPVVSDRAWCRLN | 0.398 ± 0.83 |
| DYSYCKVNPLNSVLSVLVLL | -0.34 ± 0.29 |
| DYTDMYTC | 0.571 ± 0.5 |
| EAGQLLL | inactive |
| EAMLKFTVYTIVRSFNAKSR | 1.11 ± 0.32 |
| EARWRQSC | 0.387 ± 0.36 |
| EASTYHFSCGRANVTDELGT | 0.882 ± 0.53 |
| ECGYFRLVSGERYTPVSSMR | -0.139 ± 0.37 |

| Substance | amyloid nucleation score |
| --- | --- |
| ECKWSLKNHYWVYDGLRGGT | -0.378 ± 0.78 |
| ECMRTRFMGNYNGPGISILY | inactive |
| EDSMNNL | -0.127 ± 0.84 |
| EDVAYYGNGFRLTYDRQITL | -0.733 ± 0.67 |
| EEPLLSDMCITVGVRFLNKS | 3.36 ± 0.22 |
| EFAKNSFAKNTFAADAWLII | 0.802 ± 0.78 |
| EFIIVRRDGLGAVYSVTNAF | 1.08 ± 0.7 |
| EFIKWRAIGENSYGKGDMDR | 0.387 ± 1 |
| EFKWYFAISDKCYVRLKLIK | 0.751 ± 0.45 |
| EFLNSNLLNTYMKLFLIITH | 3.36 ± 0.21 |
| EFTGDRQSYFCLQYSCTSLR | -0.096 ± 1.7 |
| EFVVGDKR | -0.311 ± 0.82 |
| EGPMLVCVLVVSTTGIGRGC | 1.58 ± 0.59 |
| EGTFLSGEHTFLNLGFSNRG | 0.019 ± 0.6 |
| EGTFRLID | 0.047 ± 0.3 |
| EGYVK | 1.1 ± 0.53 |
| EGYYEPVIVI | 0.66 ± 0.47 |
| EHNNFFICVCWSAGTSVRMI | 7.992 ± 0.063 |
| EHSPRRGAL | 0.063 ± 0.66 |
| EIFSNPSVYHESMK | -0.072 ± 1.2 |
| EITFPRAMWANRTTTMDRIM | -0.036 ± 0.4 |
| EKDVAIFLDLGYFHCTRSST | 1.97 ± 0.2 |
| EKWGGGVM | -0.08 ± 0.58 |
| ELEPCDPGF | inactive |
| ELKSAFCWRARLG | 0.197 ± 0.49 |
| ELLCLNL | -0.83 ± 0.73 |

| Substance | amyloid nucleation score |
| --- | --- |
| ELLEILFCSTIVERKNHRRP | 2.11 ± 0.11 |
| ELLFFYYMSSNCFVFISCSQ | 1.59 ± 0.38 |
| ELSSLGTCNCFHIRVSWGYM | 0.99 ± 0.37 |
| EMNLSLSVCALFRFIT | -0.56 ± 0.43 |
| EMSINLRNL | 0.558 ± 0.16 |
| ENDYITCQMSQSVQNVVVVK | 0.647 ± 0.43 |
| EPMMLY | 0.333 ± 0.28 |
| EQASVIKDVYFPHILRLRMA | -0.432 ± 0.4 |
| EQQLQRM | inactive |
| ERDCPYRTMGLRCVNYRFRG | 3.64 ± 0.14 |
| ERGII | 0.621 ± 0.39 |
| ERGMEVLCNYENKGL | 0.918 ± 0.6 |
| ERHMYMSCWFTNY | 0.777 ± 0.21 |
| ERIIRKAC | 0.338 ± 1.4 |
| ERMSRLCSQSGARRKCGAGC | 1.01 ± 0.64 |
| ERPSRN | 0.22 ± 0.93 |
| ERYSMLDGFGSDLNWIIYNN | 0.978 ± 0.71 |
| ESFILVFGGCCNWFGCVYLM | 6.537 ± 0.06 |
| ESFTPSRSTNVRI | -1.24 ± 0.94 |
| ESLFPVCGEMTVTCPLSPTE | 0.423 ± 1.4 |
| ESMRFHRGEVGPLWDVRWGA | 1.61 ± 0.78 |
| ESQLVTAYEH | 0.324 ± 1.1 |
| ESRLLYSFRWVGERAVPSAN | 0.4 ± 0.58 |
| ESVTWSWE | 0.505 ± 0.39 |
| ETHGYFVYVFVCGRWAGMK | -0.114 ± 0.28 |
| ETLSSFI | 0.032 ± 0.28 |

| Substance | amyloid nucleation score |
| --- | --- |
| ETNLFVLNVNNVLVVFWCPP | 6.938 ± 0.046 |
| ETRYPPRVNSVYTVWPMYLL | 0.464 ± 0.43 |
| EVADVGKMMIVVGDCRVFRW | 5.593 ± 0.048 |
| EVISPFQLSSDVGGMSRLGV | 0.73 ± 0.72 |
| EVMDTLYLLLVCRYFAKCIT | inactive |
| EVRLPQTYLVEWGTNQFRF | -0.504 ± 0.57 |
| EVSHT | 0.428 ± 0.25 |
| EVYKHHYLA | 0.044 ± 0.47 |
| EVYVRRRVSIQKEGVLHAQK | 0.907 ± 0.97 |
| EWLLARMTISKRMMW | 0.587 ± 0.29 |
| EYICLLTDSCNDTVLFSCPR | -0.583 ± 0.83 |
| EYRFVN | -0.227 ± 0.28 |
| EYSVYDRYRPGNCCRTSRMD | 0.251 ± 0.31 |
| EYTGSEPYLLVQVSLLNQRV | inactive |
| FAFTIFPCYYWDLNCLRFQH | 6.549 ± 0.047 |
| FAGLSHWKPLDGTMGVGDRV | -0.526 ± 0.41 |
| FAIFKSTIPINSVVWPIIMH | 0.87 ± 0.3 |
| FATYWVHDMAWRMSGVQMSV | 0.307 ± 0.84 |
| FAVSRVEMNLGL | -0.117 ± 0.34 |
| FAWEVKTDYRWYNPWLGRAC | -0.838 ± 2.1 |
| FAWGGFC | -0.155 ± 0.86 |
| FCCMGDMYFCSDFQSVSLFL | 8.454 ± 0.065 |
| FCCNWSCNCLRMG | 7.799 ± 0.051 |
| FCFGGNVGRYLMVRPCVFGY | 0.035 ± 0.71 |
| FCHVRTL | -0.97 ± 1.7 |
| FCNWAL | -0.18 ± 0.5 |

| Substance | amyloid nucleation score |
| --- | --- |
| FCRDVSVYLDYLDGPRSGWS | -0.245 ± 0.35 |
| FCRGKPRRLVP | -0.219 ± 0.67 |
| FCRHLGLSS | 1.25 ± 0.44 |
| FCVGYRCWMYN | -0.086 ± 0.25 |
| FCVRTEYSGGELAARSLDFA | 0.498 ± 0.97 |
| FCVRWILPLDISMGDRHSSE | 0.592 ± 0.49 |
| FCYYKCNESGP | -0.751 ± 0.71 |
| FDANGVCSSITSCM | -0.359 ± 0.53 |
| FDGFRGNG | 0.487 ± 0.49 |
| FDHSG | inactive |
| FDIVDANKGAAPGKTVYLWR | 0.641 ± 0.93 |
| FDTGGVRRRCACVSLYGVDV | 0.027 ± 0.43 |
| FDVGSFTGIGV | 0.115 ± 0.77 |
| FEGLVQL | inactive |
| FEGRGFKDNATQENNSEFAS | 0.4 ± 0.46 |
| FENDWNLINLLGF | 1.49 ± 0.55 |
| FERSW | inactive |
| FESTPLVGHTRASSRYCARF | -0.742 ± 2.1 |
| FFCRFGILFSTKGFLGFMRF | 1.01 ± 0.67 |
| FFFNCMRWSCMKVDHTGFVG | -0.255 ± 0.47 |
| FFGFCSSVES | 0.662 ± 0.51 |
| FFHSAYCFCNNLPMGLDLWS | 5.81 ± 0.083 |
| FFIDMCEL | -0.897 ± 0.53 |
| FFILRNQRPIC | 1.76 ± 0.2 |
| FFLRSPFL | 0.016 ± 0.41 |
| FFMIRRMLVTGWARQCIPRY | -0.105 ± 0.75 |

| Substance | amyloid nucleation score |
| --- | --- |
| FFMLGSSY | inactive |
| FFNYRVMKRHYSVYLCVGSM | 1.18 ± 0.14 |
| FFSKNT | -0.041 ± 0.26 |
| FFTVSVYLHVRGVAYESAAA | 0.252 ± 0.32 |
| FFVLRLSLTFWSCKS | 1.3 ± 0.56 |
| FFVPSYLPFMMFHVLSCRDF | -0.417 ± 0.45 |
| FFWLVAK | -1.18 ± 1.2 |
| FFWNRWRRTQRANTMLMMRM | 0.402 ± 0.68 |
| FGDWGCRRRNVSA | -0.269 ± 0.37 |
| FGEYSCGRREMPYCFLDYYL | 0.356 ± 0.41 |
| FGFTGLTSW | -0.146 ± 1.4 |
| FGFVSPGPY | -0.611 ± 0.51 |
| FGIIGEERNLRAAPMAGGRP | -0.455 ± 1.2 |
| FGLYVYLPEGRHACVALRTV | -0.89 ± 0.88 |
| FGNRFEYRFERTN | -0.482 ± 1.1 |
| FGPMLHTLDLCWRGMWIS | -1.56 ± 2.7 |
| FGPNVSFR | -0.638 ± 0.54 |
| FGVNCNYCLILVQCMC | 2.35 ± 0.52 |
| FGVSVLCSEWGTPRFVCWVN | -0.6 ± 0.43 |
| FGWGTLIGGLWTDNEQSLFT | -0.375 ± 0.49 |
| FGWLFVCEVSAAGPPTLIWT | 3.11 ± 0.15 |
| FHMARKQETTSI | -0.18 ± 1.7 |
| FHRNHRINNRMSMAYSC | 0.059 ± 0.9 |
| FHSLRLRLMRNYG | -0.31 ± 1.4 |
| FHSMDEHVLLILTKNSV | 0.317 ± 0.6 |
| FIESVL | 1.14 ± 0.67 |

| Substance | amyloid nucleation score |
| --- | --- |
| FIGMTDPMSIDILLLSS | 0.389 ± 0.58 |
| FIKHGNLSAKQPVEKDLKLD | 0.414 ± 0.46 |
| FIMIDRPETLQPNLDGLKL | -0.524 ± 0.45 |
| FIMVCGSKGLLVALGALE | -0.752 ± 1.3 |
| FINLASVVSIVVLVT | 4.24 ± 0.076 |
| FINWLPNNDHFFCRNWICLQ | 5.902 ± 0.05 |
| FISNIFKMKMATQSGGLGVR | -0.789 ± 0.71 |
| FITYRGSKVRAFLSR | -1.46 ± 0.9 |
| FKCRACMLYDVYIAERWVTG | -0.022 ± 0.37 |
| FKCYWAVCIELWYGCSTVGL | 0.588 ± 1.2 |
| FKEYQRNA | -1.04 ± 2.7 |
| FKGQSVCFDLVGWFEVLCQG | -0.381 ± 0.85 |
| FKLAIVSIFCINSWYNESLR | 5.866 ± 0.049 |
| FKTDRGTRHFDFYYCV | 0.395 ± 0.21 |
| FKVSVALSWDDVSQFGYGYG | 0.117 ± 0.65 |
| FLATYLMEVYMMDSWNF | -1.65 ± 1.4 |
| FLAVIGAPNRCDFGQSMLRM | 3.51 ± 0.081 |
| FLFRGV | -0.28 ± 0.91 |
| FLIEMCYV | -0.484 ± 0.88 |
| FLIFKSCLVGILRSSNKIGC | -0.469 ± 1.1 |
